# Test results: the DeepSol protein solubility set
# Experiment: soluble on expression in E. coli; label from the status in PepcDB or PDB records
row,Sequence,soluble on expression in E. coli
1,MEENMNIKQLKSKTMLGTVALVSAFSFASTNADANTYNYAVDVDYLASAEEIAQAHPASNTFPLGQCTWGVKEMATWAGNWWGNGGDWAASAASADYTVGTQPRVGSIVCWTDGSYGHVAYVTAVDPVTNKIQVLESNYAGHQWIDNYRGWFDPQNTVTPGVVSYIYPNLEHHHHHH,not soluble
2,MEEPMEVDNKRPKVLTWTEKYRPKTLDDIAYQDEVVTMLKGALQGRDLPHLLFYGPPGTGKTSAALAFCRQLFPKNIFHDRVLDLNASDERGIAVVRQKIQSFSKSSLGHSHREDVLKLKIIILDEVDAMTREAQAAMRRVIEDFSKTTRFILICNYVSRLIPPVVSRCAKFRFKSLPAEIQVQRLRTICDAEGTPMSDDELKQVMEYSEGDLRRAVCTLQSLAPILKSGDDNARNCYLRGSSDSLLISNVCKSILTADVPQIIALTKDITKSCTGVAFIRRCFQQLMDEDVINDENIGVMGKLVATCEKRILDGCDLENNLLDFLLTLRETIQ,not soluble
3,MEEPSELGASKEKPIELNEDDESSDGENSVIILDSDTEPEDGAGGEEDEDNGEDSEEEDEEDSDEEESEDDSDSSVDTESVNSVWSNVDEENGEEITTEAAEAKIIKKFEKAIFSIADNDSETGRRILEKLLNDAIIATYNQENPDFELLDEPPRLAKMLQVFIASHRNLAKLCEKEVENADEKEKEQLKSEEIQHLCQVLAYEPNSSDIWLDVALKSIEFGDLNFSKYAFKRCETLKESLESHATLLYLTCDYNESLMIMKQFQEQNDVLNDKLKYLKHKIRSTNQYYKLSCDRIFEEDEVYADVQSVEKRKIQDFDERIEALRSRVVGKIEQRDVDFRDEEEKCSVIPIRIEADQE,not soluble
4,MEEQNANQMLTDILSFMKSGKRAAALEHHHHHH,soluble
5,MEESKTPHVAIIPSPGMGHLIPLVEFAKRLVHLHGLTVTFVIAGEGPPSKAQRTVLDSLPSSISSVFLPPVDLTDLSSSTRIESRISLTVTRSNPELRKVFDSFVEGGRLPTALVVDLFGTDAFDVAVEFHVPPYIFYPTTANVLSFFLHLPKLDETVSCEFRELTEPLMLPGCVPVAGKDFLDPAQDRKDDAYKWLLHNTKRYKEAEGILVNTFFELEPNAIKALQEPGLDKPPVYPVGPLVNIGKQEAKQTEESECLKWLDNQPLGSVLYVSFGSGGTLTCEQLNELALGLADSEQRFLWVIRSPSGIANSSYFDSHSQTDPLTFLPPGFLERTKKRGFVIPFWAPQAQVLAHPSTGGFLTHCGWNSTLESVVSGIPLIAWPLYAEQKMNAVLLSEDIRAALRPRAGDDGLVRREEVARVVKGLMEGEEGKGVRNKMKELKEAACRVLKDDGTSTKALSLVALKWKAHKKELEQNGNH,soluble
6,MEEVVRFECRDSNLEIYVVQPGERLSIFGSCSFLCLAGNASINDYNLPAVSCESSNFMKISAPQRMDVPAILQVFKSGPSYKHARLKFRLKEVAPKNYEKIMEMIGTTEPSVFIFSKILDFAEETVSGVVSNFLIHSSIQKQIILPPHFFISRDDFIIYPQQQEAQLKSQMNRLNKLRNDGQRTTILPIGHKGAGKSNLMRSLVNRCLSNGYEHVYVLDCDIGQSEFTPCGCLSLTKVTSPILGKPHGHQRASFENSFFYGDITVRDINLYMDIFERLFNKFKVISEPGSVCIINSMGWVTDEGAEILDGITRVTDPELFVEIFRDQTEARYQFLNRAEHNIVEIFANNSIGVIGLPPQKRLPAALIRELTIVGYFSSRLPRPSLASFPKVAPYKLRFENVTICVPVDLLVEDSHVFSSINTQIMALCINNTDLKPRKLYGKDDLPSICVIDGNSPALQCIGFGIIRGVSVEERIIFVVTPVDLLKLEEPPVLVRGMRIQTPTMFYTADPYNRCPYVLNDLEQGNSDNTLDGLYQPSVNTTQFKRSRRF,not soluble
7,MEFFFFIDVYADRELVDYYIVTFKLDDLSSVELTGSQGKYYIRGIRDWEKFKEEAYDITLYELGDEVDRFKDIETALREAYRIAIGEAVRRGAKNIVPAIGFGNPPPEVVERVYPEELKFEKFPEDLDAFLDRIVKEVSLETTERSKDDDEIPF,soluble
8,MEFKNPGFTGLFVIGRKYFMTAENTEMTLHPKKLPPNAGKGRVKGVPNKTTSLLKESVIEAAKRAGSKYGKEGLISYLEKQALKCPAAYLALLGKVLPLQVTGEDGGAIKMIGRVEIAPLGHDNTTD,not soluble
9,MEFPFDVDALFPERITVLDQHLRPPARRPGTTTPARVDLQQQIMTIIDELGKASAKAQNLSAPITSASRMQSNRHVVYILKDSSARPAGKGAIIGFIKVGYKKLFVLDDREAHNEVEPLCILDFYIHESVQRHGHGRELFQYMLQKERVEPHQLAIDRPSQKLLKFLNKHYNLETTVPQVNNFVIFEGFFAHQHPPARKLPPKRAEGDIKPYSSSDREFLKVAVEPPWPLNRAPRRATPPAHPPPRSSSLGNSPERGPLRPFVPEQELLRSLRLCPPHPTARLLLAADPGGSPAQRRRTR,not soluble
10,MEGGFGSDFGGSGSGKLDPGLIMEQVKVQIAVANAQELLQRMTDKCFRKCIGKPGGSLDNSEQKCIAMCMDRYMDAWNTVSRAYNSRLQRERANM,not soluble
11,MEGQQVILHLPLSQKGPFWTWEPSAPRTLLQVLQDPALKDLVLTCPTLPWHSLILRPQYEIQAIMHMRRTIVKIPSTLEVDVEDVTASSRHVHFIKPLLLSEVLAWEGPFPLSMEILEVPEGRPIFLSPWVGSLQKGQRLCVYGLASPPWRVLASSKGRKVPRHFLVSGGYQGKLRRRPREFPTAYDLLGAFQPGRPLRVVATKDCEGEREENPEFTSLAVGDRLEVLGPGQAHGAQGSDVDVLVCQRLSDQAGEDEEEECKEEAETQSGSCCPSTSLAVSWRRLEHHHHHH,not soluble
12,MEGTLSFVSGFAPAVYRRELFRHRCVTTAPEARAWPRLGLLRANSGARLSRVDITPEIYKRLVSMAKRTEGNFSAVAGAILESYLTAATNRDLRAVIFDMDGVLCDSERLSRAAGVEYFRRYHGVWPTEKDFADFAGTGEAAFLSGVARRYSVKDFDVNKAKEGFFNIYVNEYVSALEPFEGVREFIQQIKTMGLKTALASSADAIKVHANLSAIGFERDMFDFVTRSDEIANKKPAPDIFLAAAEGLGVPPESCVVIEDAPAGVLAAKRARMRCVAVATSVSAQLLWDAGADIVRPAPQYIMLDDIVITDDADASAPASASQE,soluble
13,MEGVDPAVEEAAFVADDVSNIIKESIDAVLQNQQYSEAKVSQWTSSCLEHCIKRLTALNKPFKYVVTCIIMQKNGAGLHTAASCWWDSTTDGSRTVRWENKSMYCICTVFGLAI,soluble
14,MEHLRRFDRVAGAVTQAMREGRIGFSLQQVNAVDDTGEVLYSECLGRLVERDGAVRTSEEFTAFLEASGRVASFDRYMVGLAFEWLDCNPSGVLGCDISAGNIFDENTWSELYDLLSRNREMASRLVLEITECLPLATLPTAAEFIEGARALGYRIALDSFGTGHSTPESLLSVPVDIVKLDAFFIGRGQGVGKGKGFLHHLVGLASCVAPTVIIEGIETYGQLEAVKKAGATHVQGFLLSEPTLYPVYCGQPAPLPAAKPRSAGSRQLHS,not soluble
15,MEHSLPPYRLRRSPRAKYLRLLIRPDGIEVVVPTGLSDATVLAFVRQHGGWAQARLEELLARLAKLRQGQAERFPAEGGSVPLEGRETPLFIEETGGSRIRVSLEDQGLRLILPRTCGADRDRYVRDALFGWMKRRLPGRVTELIERHAPLHGLYPRQLRIKSMRTRWGSCGPANDINLNWLLGLAPLSVLEYVVVHELCHIRHRNHSRDFWELVAAHLPDWRQERQWLKAHGGGLIQRFDPAFRLEHHHHHH,soluble
16,MEICADELKKVLNTVVNKHKDLKTHGFTLESCRSMIALMDTDGSGKLNLQEFHHLWNKIKAWQKIFKHYDTDQSGTINSYEMRNAVNDAGFHLNNQLYDIITMRYADKHMNIDFDSFICCFVRLEGMFRAFHAFDKDGDGIIKLNVLEWLQLTMYA,soluble
17,MEIIGGKEVSPHSRPFMASIQYGGHHVCGGVLIDPQWVLTAAHCQYRFTKGQSPTVVLGAHSLSKNEASKQTLEIKKFIPFSRVTSDPQSNDIMLVKLQTAAKLNKHVKMLHIRSKTSLRSGTKCKVTGWGATDPDSLRPSDTLREVTVTVLSRKLCNSQSYYNGDPFITKDMVCAGDAKGQKDSCKGDAGGPLICKGVFHAIVSGGHECGVATKPGIYTLLTKKYQTWIKSNLVPPHTN,soluble
18,MEIIKIDSHKDIEQQEDSVLVLGYFDGLHRGHKELFNQAREIAQKMQLKIVVLTFPESPQLAFTRFEPDLLNHINYPEKRYCKFAEYGVDCLYLTDFTSSFAKISSDDFIKNYIKALKAKAVVMGFDYKFSHSKANSDYLKHHFAGQVITVPEVQYEGKKISSTRVRQLIKQGDMTQVNRLLGYEFSTRGIVVHGDARGRTIGFPTANLAPLDRTYLPADGVYVADVIVGRKRYRSMTSIGKNITFGGTELRLEANIFDFDDDIYGETIEIFWLNKIREMVKFNSVNDLVEQLKSDKEIAINWGKS,not soluble
19,MEILIATGRLAENTVRKAAGEKADVLVADIDIAAFITPKKLTRAFEEAGLSKKYDLILLPGLVPGDFSKVSDELDCKIRLGPKHAYDLGFVLRFAEEVEFSVKVPACELLADVRKEEALELIREAEEEAVSPLSLRGVKLGGNSRMKVMGEIVGAAELNPADLEIKIEAFIARGADIIDLGATLNTLPGQVRSTVFLAKSLTDIPISIDTLDPELIKEGIEAGADLVLSLNSTNMETAGSVVAKAGVAAVIIPDEGNSLESLVNNIESARRLGIERIIADPILDPVGHNITESIVRYHEFHRRYPDIPLFFGAGNVTELMDVDTIGVNATLCGIGAETGASILFTPEYSDKAQGSIGELKKASEMMQLCRIRESSPKDLGIDLLFIKEKRKRPDSPLPKKVITARASKNWRQDPAGPIRVRIVPDKINGNGGLIVAEHEKAAIAGESAREVMDTLIELELVSSLDHAAYLGRELEKAELALRFNRSYAQDDIF,not soluble
20,MEINQKREEEDDDEMEWRRDGVKRDSNDFSNYCRQRSLSSDATIMSRQFFVYLIFHVLIDNVIARAPFTRDRPRGLGLLQLPTGMTDERSGPFFPGLYIAGDKAGQKPQTVPDVSLPGQTASFTGRSAFNPFTHMVSAVYTEDLVDAWGAGFAVNGVNNHGLNVRKNFDAFADAPLSSSDGMYQPFLSAASIGSEYDFSKIREVSGNFNLPIPGVNELFDFDGRFMVKGGGNGILNSAMEFPLTLSDPNERAPYTFKYLNYMADRHMHYGHVVPNVNLFVVGKDKIMERLMQNRLNPTMVG,not soluble
21,MEIRKKLVDPSKYCIKCPYTMNPEFITVHNTYNDATAENEVAYMIRNDNQVSFHIAVDDKEAVQGIPLERNAWHTGDGNGNGNRKSIGVEICYSLSGGDRYYKAEDNAAIVVAQLMKQYNIPIKKVRTHQSWSGKYCPHRMLAEGRWNNFIERVQNAYNGDGKVTPTLIPPSTNGTGIAYIEGNGINLRKGLGTGYGVIRQLGKGESYEVWGQSNGWLNLGGNQWIYNDSSYIRYTGESTPTSSQSVNNGVGIVTITADVLRVRKGPGTNYDIVKNVYQGEQYQSWGYRDGWYNVGGDQWVSGEYVKFED,not soluble
22,MEIRWMKSFVAVAEELNYGRAAEVLHIAQPAVSQQVQQLEKRLGVKLFDRTTRSVRLTAAGERFLQPCKDALAGIVRAVDAAVIADPAVEGRVRVGFSGAYGQTELSSLARSVRRRYPLIDLVLEGATVSGQILDEIWEGQLDLGIVSDAVSHPHVLTRQISVEYLSALLPSDHPLAERKSIDLAELRDETFVANPAATGSTLRRDLLAACRDAGFTPNIVQETTDGIVLTALVAAGVGVALVPGDVQTYPNRVVLVPLDAGRYEVRAALAWSDRPVSPVVQTVLDLAAEVLPSPDALAVEQ,not soluble
23,MEITKTDLFYNISEQQQAEMMHCFKTYTRTYKSGEVICFYDDNNIGVGIIESGSARVIHFLPNGTQTILEQLCRGDLFGQLFYHYACPESISLEATCDCVVRFIDYEHIIKRCSKACPHHSQLVNNILVIISDKTRSICEHLEVLSGRTIRDRLNNYFEILSSKSGSNTFKLPFTMTALADYLSVDRSAMSRELKKMKDEGLIQTNKGIVTINR,not soluble
